“And” between values parts separate entries of the source, which are not always exact repeats. Identical values can stand only once.

Test [1] deals with Pv41-Fc (PVX_000995, ectodomain E22-E384, human IgG1 Fc fusion) (Plasmodium vivax) (UniProt A5KAP6). Kind of test: BLI; Gator system, anti-human IgG Fc (HFC) probes; Fc-tagged protein immobilised (10 µM, 120 s); His-tagged protein in serial dilution (1.5 to 100 µM by the methods; 1.5625-100 nM in the key of Fig. S3C), association 300 s, dissociation 600 s in PBS; 1:1 global fit; two experiments with different batches of protein.

Test [2] addresses Pv12 full-length ectodomain, His-tagged (Plasmodium vivax). The test is described as follows: native gel or EMSA; blue native PAGE, 4%-16%, purified His-tagged recombinant protein, Coomassie stain.
In test [3] the target is Pv41 full-length ectodomain, human IgG1-Fc-tagged (Plasmodium vivax). The test is described as follows: BLI; Gator system, anti-human IgG Fc (HFC) probes; Fc-tagged protein immobilised (10 uM, 120 s); His-tagged protein 1.5 to 100 uM, 300 s association, 600 s dissociation in PBS; 1:1 global fit. For orientation: Biolayer interferometry detects binding as a change in optical thickness at a sensor tip.

The target in test [4] is Pv41 full-length ectodomain, His-tagged (Plasmodium vivax). The test is described as follows: native gel or EMSA; blue native PAGE, 4%-16%, purified His-tagged recombinant protein, Coomassie stain. For orientation: In EMSA bound probe runs differently from free probe, usually more slowly.
In test [5] the target is Pv12 full-length ectodomain, human IgG1-Fc-tagged (Plasmodium vivax). The test is described as follows: BLI; Gator system, anti-human IgG Fc (HFC) probes; Fc-tagged protein immobilised (10 uM, 120 s); His-tagged protein 1.5 to 100 uM, 300 s association, 600 s dissociation in PBS; 1:1 global fit.
In test [6] the target is Pv12-Fc (PVX_113775, ectodomain F24-A339, human IgG1 Fc fusion) (Plasmodium vivax) (UniProt A5K1W7). The test is described as follows: BLI; Gator system, anti-human IgG Fc (HFC) probes; Fc-tagged protein immobilised (10 µM, 120 s); His-tagged protein in serial dilution (1.5 to 100 µM by the methods; 1.5625-100 nM in the key of Fig. S3C), association 300 s, dissociation 600 s in PBS; 1:1 global fit; two experiments with different batches of protein.

For test [7], the target named is Pk12-Fc (PKNH_1137300, ectodomain F24-S344, human IgG1 Fc fusion) (Plasmodium knowlesi). The test is described as above.
The target in test [8] is T1, PvDBP-RII (194-521 aa.)-8His (Plasmodium vivax, UniProt P22290 194-521).
T1 construct: also called PvDBPII-His; PvDBP-RII-His; source: HEK293-EBNA1 cells, transiently transfected, purified from culture supernatant (Ni-NTA); not shown: 8xHis, C-terminal, kept
Described as above. Particulars: both partners purified.

The target in test [9] is T2, P. vivax Duffy-binding protein region II, His-tagged (194-521 aa) (Plasmodium vivax, UniProt P22290 194-521).
T2 construct: also called PvDBPII-His; PvDBP-RII-His; source: HEK293-EBNA1 (HEK293E), transiently transfected, purified from culture supernatant (Ni-NTA); not shown: 8xHis, C-terminal, kept
The test is described as follows: BLI; Gator system, anti-human IgG Fc (HFC) probes; Fc-tagged protein immobilised (10 uM, 120 s); His-tagged protein 1.5 to 100 uM, 300 s association, 600 s dissociation in PBS; 1:1 global fit. Particulars: both partners purified.

As for “Pk12-8His (PKNH_1137300, ectodomain F24-S344) (domain or fragment)”, in [1], the Kd is 184 nM and 160 nM; the dissociation rate constant (koff) is 0.0485 s⁻¹ and 0.0454 s⁻¹; the on-rate constant (kon) was 263000 M⁻¹ s⁻¹ and 284000 M⁻¹ s⁻¹.
Regarding “Pv12 full-length ectodomain, His-tagged (domain or fragment)”, the stoichiometry N in [2] turned out to be 2. The Kd in [3] was found to be 0.53 nM.
In the case of “Pv12-8His (PVX_113775, ectodomain F24-A339) (from UniProt A5K1W7 24-339) (domain or fragment)”, in test [1], the Kd is 0.555 nM and 0.512 nM; the koff is 0.000174 s⁻¹ and 0.000156 s⁻¹; the kon is 314000 M⁻¹ s⁻¹ and 305000 M⁻¹ s⁻¹.
Turning to “Pv41 full-length ectodomain, His-tagged (domain or fragment)”, the stoichiometry N in test [4] is 2. In [5], this molecule registered a Kd of 14.2 nM.
For “Pv41-8His (PVX_000995, ectodomain E22-E384) (from UniProt A5KAP6 22-384) (domain or fragment)”, in [6], the Kd was 12.2 nM and 16.1 nM; the koff was 0.000662 s⁻¹ and 0.000803 s⁻¹; the kon is 54300 M⁻¹ s⁻¹ and 50000 M⁻¹ s⁻¹. Moreover, in test [7], the Kd was 19 nM and 11.4 nM.
“PvMP38 (PVX_110945), full-length ectodomain, His-tagged (domain or fragment)” came in with a Kd in test [5] of 2.46 nM.
With “PvMP38-8His (PVX_110945, full-length ectodomain D28-K343) (domain or fragment)”, the Kd in test [6] is 2.39 nM and 2.56 nM; in test [7] it was 0.833 nM and 0.96 nM.

B1: hDARC-Fc (human DARC M1-P63, human IgG1 Fc fusion) (Fc fusion, UniProt Q16570-1 1-63, looked up)
chain: MGNCLHRAELSPSTENSSQLDFEDVWNSSYGVNDSFPDGDYGANLEAAAPCHSCNLLDDSALP
notes: Duffy antigen/receptor for chemokines (DARC), human, NP_002027, region expressed M1-P63; also called human DARC-Fc; source: HEK293-EBNA1 cells, transiently transfected, purified from culture supernatant (HiTrap Protein G HP)
On to B1, for which the Kd in test [8] is 3 nM and 2.39 nM.

B2: human DARC-Fc (1-63 aa) (Fc fusion, UniProt Q16570 1-63, looked up)
chain: B1 chain
notes: Duffy antigen/receptor for chemokines (DARC), human, residues 1-63; also called hDARC; source: HEK293-EBNA1 (HEK293E), transiently transfected, purified from culture supernatant (Protein G)
In the case of B2, binding in test [9] was put at a Kd of 2.7 ± 0.43 nM.

A word on the Kd: it is the equilibrium constant for the complex coming apart. What is called koff is a measure of how fast the partners let go of each other. A word on the kon: it is a measure of how fast the partners come together. The term stoichiometry N denotes the number of molecules, sites or subunits per partner or assembly.

The values are drawn from article PMC12077092, “A novel micronemal protein MP38 is involved in the invasion of merozoites into erythrocytes” (mBio, 2025).
